Test results reported in the supplement of paper PMC9732359.
± gives the uncertainty stated by the source.

Experiment: protein stability index of a GFP-peptide fusion (yeast GPS) (PSI 1-4); higher = more stable; sorted into four equal gates, so the index is relative within each strain
Outline: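 Tiled yeast protein peptides of 17 residues were each joined downstream of GFP, on plasmids that also express Cherry. The pooled library was maintained in yeast, and mid-log cultures in leucine-free medium were sorted into four equal gates on the GFP/Cherry ratio. Plasmids from every gate were amplified by PCR and sequenced on Illumina, with barcodes linking reads to strains. The protein stability index of a peptide is its gate-number-weighted read frequency summed over the gates.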

Sequence	protein stability index (doa10∆)	protein stability index (pdr5∆)	protein stability index (san1∆)	protein stability index (ubr1∆)
NIVMDSKQNGIEQSITK [SSN8]	3.08 ± 0.16	2.59 ± 0.28	2.61 ± 0.18	3.15 ± 0.12
SIKNNVAMCFVINKLDR [SNU114]	1.9 ± 0.14	1.91 ± 0.12		
AALANANNNINSASSAP [SWI1]	2.55 ± 0.088	1.91 ± 0.068	2.88 ± 0.13	2.55 ± 0.12
DNVSGLTRNAPLDSKDE [SNF2]	2.95 ± 0.063	3.25 ± 0.051	3 ± 0.04	3.13 ± 0.043
FNEDQLFSLLELGEQKC [RRP46]	2.37 ± 0.071	2.6 ± 0.089	2.61 ± 0.071	2.36 ± 0.062
SDDAAQFMKRFPMPYEN [ECM29]	2.96 ± 0.068	3 ± 0.14	2.9 ± 0.082	
NFFQAPQDYVLERVKRI [YML031W/NDC1]	2.81 ± 0.064	2.62 ± 0.045	2.9 ± 0.068	2.77 ± 0.036
APSIIFMDEIDSIGSTR [RPT6]	2.76 ± 0.063	2.89 ± 0.088	2.83 ± 0.058	2.93 ± 0.054
FCRDCNNMLYPREDKEN [RPB9]	3.11 ± 0.083	3.11 ± 0.076	2.9 ± 0.064	3.08 ± 0.061
AQNQGGQVSMSQFNGSG [PGD1]	3.42 ± 0.12	3.29 ± 0.12	2.93 ± 0.081	3.23 ± 0.076
DTVAELQAQLDYLNAEL [FAS2]	2.81 ± 0.092	3.08 ± 0.081	3.12 ± 0.049	2.96 ± 0.09
SFTFASSKTSQPKPLFS [YOR098C/NUP1]	2.37 ± 0.042	2.44 ± 0.035	2.27 ± 0.046	2.69 ± 0.029
PAGKQVEISLVNGAKNL [FAS1]	2.63 ± 0.27	3.23 ± 0.23		2.31 ± 0.19
DFNMKLAINAKTITSGL [RPB2]	2.99 ± 0.087	3.06 ± 0.086	2.76 ± 0.061	2.99 ± 0.05
NKNIDIGLLNKSKSSLD [RPN2]	2.37 ± 0.071	2.22 ± 0.097	1.76 ± 0.096	1.92 ± 0.05
CQYMVACVPLLPPPEDV [RPN1]	2.03 ± 0.046	2.57 ± 0.073	2.65 ± 0.048	2.76 ± 0.053
DPVEGNLEFDSTNHPDY [SRP14]	2.9 ± 0.066	2.79 ± 0.068	3.09 ± 0.049	2.95 ± 0.051
LVHSEYLINGKRFKRKD [SRP68]	2.68 ± 0.16	2.79 ± 0.065	2.84 ± 0.076	2.67 ± 0.038
RLTVSARDAPTKISTLA [QCR2]	3.2 ± 0.096	3.17 ± 0.069	3.04 ± 0.066	3.19 ± 0.055
LNSLLTYIKSEITQQEK [SMC4]	2.77 ± 0.066	2.04 ± 0.055	2.73 ± 0.071	2.63 ± 0.06
SVKSVKFPTRKIYMLYS [RPC34]				3.58 ± 0.25
MSKVMKPSNGKGSRKSS [SNF12]	2.92 ± 0.091	3.27 ± 0.11	3.02 ± 0.11	3.232 ± 0.029
SSLRKNASGNKRSGVIE [ITC1]	2.96 ± 0.22	2.22 ± 0.15		2.06 ± 0.089
LPEPTEGFAADDEPTTP [FAS1]	3 ± 0.095	2.65 ± 0.099	3.35 ± 0.15	2.92 ± 0.065
NQLDGFDDRGDVKVIMA [RPT2]	3.47 ± 0.17	3.44 ± 0.27	3.09 ± 0.1	3.52 ± 0.17
FDKLLNIPRRELKINLP [SRB4]	2.57 ± 0.074	2.6 ± 0.053	2.74 ± 0.071	2.12 ± 0.061

Sequence	protein stability index (doa10∆)	protein stability index (pdr5∆)	protein stability index (san1∆)	protein stability index (ubr1∆)
LKISLIQIFRAHLWQKI [PRP8]	1.17 ± 0.077	1.18 ± 0.055	1.13 ± 0.13	1.12 ± 0.057
ERRLQTQVYKLGLAKSV [RPS9A]	1.29 ± 0.067	1.23 ± 0.056	1.2 ± 0.18	1.23 ± 0.064
NILKILSSLILKIFQEQ [SRB8]	2.17 ± 0.047	1.99 ± 0.05	2.48 ± 0.1	2.02 ± 0.037
TFDSSWNWAKQSLLSLY [FAS2]	1.47 ± 0.066	1.3 ± 0.058	2.08 ± 0.15	1.58 ± 0.073
ELRSLSKKDFKIIDNPK [YMR129W/POM152]	2.46 ± 0.058	2.6 ± 0.06	2.24 ± 0.081	2.93 ± 0.07
AGHVSGVITVHNVFSKE [RPN14]	1.85 ± 0.15	1.75 ± 0.14	2.92 ± 0.077	2.79 ± 0.13
NVDRLYKLNVRSNDPQS [NUT2]	3.22 ± 0.11	3.2 ± 0.084	3.27 ± 0.065	3.39 ± 0.089
ECPGHFGHIDLAKPVFH [RPO21]	2.69 ± 0.064	2.88 ± 0.06	2.74 ± 0.048	2.92 ± 0.052
EIFAFGNIKDLPENIIL [CSN9]	2.7 ± 0.066	2.92 ± 0.056	2.8 ± 0.043	2.93 ± 0.042
VRKYDLNICRQCFREKA [RPS29B]	2.12 ± 0.22	2.67 ± 0.092	2.02 ± 0.19	2.49 ± 0.11
DAHKAEQEDIIEKTESV [SWI3]	3.19 ± 0.086	3.32 ± 0.1	3.38 ± 0.046	3.21 ± 0.081
PVKQSFIRKYINQKALR [GAL11]	1.61 ± 0.12	1.59 ± 0.07	1.61 ± 0.099	1.77 ± 0.08
LQAIQEKLNKTDENTPS [ITC1]	3.12 ± 0.098	3.08 ± 0.061	2.98 ± 0.047	2.89 ± 0.043
LATLHYQKKQYKDSLAL [RPN6]	1.91 ± 0.28	1.47 ± 0.17	2.62 ± 0.19	2.14 ± 0.23
ILEHTLFKGTGFNSWEG [PRP8]	2.42 ± 0.12	2.41 ± 0.12	3.38 ± 0.13	1.64 ± 0.039
EGDQAEVIFSFEGTPPF [YMR129W/POM152]	3.29 ± 0.17	3.39 ± 0.17	2.52 ± 0.21	3.36 ± 0.1
RIIREMFAYAKEHEPCI [RPT4]	2.43 ± 0.1	2.65 ± 0.12	2.83 ± 0.11	2.58 ± 0.093
QSLELMIYDDAHEISQG [BRR2]	2.73 ± 0.04	2.92 ± 0.037	2.86 ± 0.037	3.02 ± 0.035
FLDGIYVSHKGFIVEDM [RPL9B]	2.24 ± 0.13	2.86 ± 0.074	2.74 ± 0.087	2.66 ± 0.13
ESNNPSHDASRSLASFE [SIR4]	2.97 ± 0.1	3.14 ± 0.12	3.02 ± 0.072	3.02 ± 0.17
PVTIWLFEQIGIRIKGK [SME1]	2.42 ± 0.057	2.28 ± 0.053	2.35 ± 0.066	2.45 ± 0.039
GSVELSTGDYTFTIQLL [YML103C/NUP188]	2.05 ± 0.084	2.41 ± 0.072	1.89 ± 0.11	2.17 ± 0.051
LITQLDGFDPRGNIKVM [RPT1]		3.31 ± 0.22	3.15 ± 0.09	3.32 ± 0.21
VDNTVPSTTLFNFGGKS [YOR098C/NUP1]	1.75 ± 0.047	2.07 ± 0.049	2.28 ± 0.058	2.38 ± 0.033
SLPLIVFLRNRLKYALN [RPS4A]	1.4 ± 0.059	1.58 ± 0.092	1.48 ± 0.12	1.7 ± 0.043
LLDFNTALKQYEKELMG [RPN6]	3.14 ± 0.25	3.33 ± 0.19	3.32 ± 0.25	3.12 ± 0.13

Sequence	protein stability index (doa10∆)	protein stability index (pdr5∆)	protein stability index (san1∆)	protein stability index (ubr1∆)
TTTSFTTSEATANDRQI [RPN4]	2.95 ± 0.051	3.13 ± 0.055	2.55 ± 0.063	3.25 ± 0.042
GAEDPKVLINDQLSTIS [SWI1]	3.27 ± 0.18	3.24 ± 0.25	3.32 ± 0.21	
GSLALLKLSMADYNGAL [POP4]	2.33 ± 0.046	2.67 ± 0.058	2.48 ± 0.054	2.38 ± 0.037
DLSLNITLHPSFFGPRM [RPB7]	2.25 ± 0.22	1.83 ± 0.1	1.7 ± 0.14	1.55 ± 0.074
MKTVQSPMGAQPSYNSA [GAL11]	3.37 ± 0.26	2.91 ± 0.1	2.56 ± 0.21	2.65 ± 0.081
RFAPDNQVTDSSQLNKL [SIR3]	2.9 ± 0.096	3.1 ± 0.11	2.98 ± 0.12	3.04 ± 0.14
LIMALLQFRPAPMYILD [SMC2]	2.47 ± 0.15	1.12 ± 0.059	1.32 ± 0.26	1.06 ± 0.046
AIFNNEFDSDDDDISDD [RPN4]	3.12 ± 0.1	2.16 ± 0.19		3.19 ± 0.21
LNEALLQCPMLYVESTG [CSN12]	1.47 ± 0.088	1.26 ± 0.09	1.23 ± 0.15	1.19 ± 0.054
VAQQQVQRQIEQQKGQQ [SNF5]	3.42 ± 0.079	3.14 ± 0.1	3.46 ± 0.075	3.19 ± 0.089
LSWCPSRFSPEKLAVSA [YGL100W/SEH1]	2.48 ± 0.078	2.57 ± 0.11	2.81 ± 0.14	
KSESPSEVLVDTLDSKS [ISW2]	2.98 ± 0.067	3.11 ± 0.068	2.96 ± 0.075	3.24 ± 0.056
RYANKRFRKAQCPIIER [RPS5]	2.34 ± 0.16	2.12 ± 0.14		1.5 ± 0.054
YSSRVDSVTTETGKLLS [BRN1]	2.38 ± 0.13	2.46 ± 0.14	2.34 ± 0.21	2.11 ± 0.18
VLKESIVNICDIQEEQV [PUP1]	3.15 ± 0.22	3.04 ± 0.22	3.33 ± 0.14	
SLDSCTAAFTAMICEAK [YJR042W/NUP85]	2.79 ± 0.13	2.51 ± 0.11	2.99 ± 0.081	2.81 ± 0.096
PIMLRSKNCYLSEATES [RPB2]	1.23 ± 0.075	1.46 ± 0.11	1.1 ± 0.15	1.14 ± 0.061
SSSGNTWSLILNECLKT [YML031W/NDC1]	1.85 ± 0.066	1.73 ± 0.084	1.48 ± 0.13	1.52 ± 0.061
ARYSIIREINYTMSNHG [RPO31]				1.44 ± 0.23
ERQIFLEACIVRIMKAK [CDC53]	1.64 ± 0.051	1.69 ± 0.048	1.48 ± 0.076	1.61 ± 0.037
RSQISEKDAKINKLMEK [SIR4]	3.13 ± 0.087	3.12 ± 0.11	3.17 ± 0.062	2.27 ± 0.047
TSLPDWCQEAFPSSETT [BRR2]	2.93 ± 0.075	3.08 ± 0.099	3.25 ± 0.072	3.01 ± 0.15
NFQISKKMDDYIHRIGR [PRP28]	3.12 ± 0.24		3.21 ± 0.13	
ALMKEKDIRSTLASLIR [RPC82]	3.2 ± 0.27	2.85 ± 0.21	2.43 ± 0.24	3.13 ± 0.12
DICLKLNLDSEQTVEYM [RPN3]	3.37 ± 0.23	3.28 ± 0.2	2.97 ± 0.24	3.07 ± 0.092
